Data reported in patent publication US20180140742A1.

What was measured:
[1] = target: oriented collagen tube (Porcine Skin Collagen type I) (porcine); experiment: depletion assay: tube immersed in fusion protein solution in phosphate buffer; bound = added minus amount left in the supernatant
[2] = target: oriented collagen tube (Porcine Skin Collagen type I) (porcine); experiment: depletion assay: tube immersed in fusion protein solution in phosphate buffer; bound = added minus amount left in the supernatant; told of the other added amounts

Q: How did the binding amount (when 10 µg added) [1] turn out when bFGF-PKD-CBD fusion protein was run?
A: 9 µg

Q: What about the protein binding rate [2] of the same substance?
A: 90%
